Laboratory results taken from patent US20220144930A1.

How the values were obtained:
[1] = molecular target: recombinant human VEGF165 protein (human) (UniProt P15692); experiment: streptavidin-coated sensor with immobilized biotin-labeled VEGF165; reference Avastin
[2] = molecular target: recombinant human VEGF165 protein (human) (UniProt P15692); experiment: streptavidin-coated sensor with immobilized biotin-labeled VEGF165, antibody at several concentrations
[3] = molecular target: recombinant human VEGF165 protein (human) (UniProt P15692); experiment: cell-based or functional assay
[4] = molecular target: recombinant human VEGF165 protein (human) (UniProt P15692); experiment: ELISA; coated VEGF165 titrated 0.15-3000 ng/mL, antibody fixed at 1 µg/mL (EC50 is of the coating concentration)

fold affinity against Avastin [1]: 1.5 fold
Kd [2]: 0.0195 nM
koff [2]: 6.7e-06 s⁻¹
kon [2]: 344000 M⁻¹ s⁻¹
EC50(nM), neutralizing VEGF165 at 10 ng/mL, HUVEC proliferation [3]: 0.14 nM
EC50(nM), neutralizing VEGF165 at 10 ng/mL, HUVEC proliferation (run against Avastin) [3]: 0.13 nM
EC50(nM), neutralizing VEGF165 at 100 ng/mL, HUVEC proliferation [3]: 1.34 nM
EC50(nM), neutralizing VEGF165 at 100 ng/mL, HUVEC proliferation (run against Avastin) [3]: 1.36 nM
EC50(nM), neutralizing VEGF165 at 1000 ng/mL, HUVEC proliferation [3]: 9.67 nM
EC50(nM), neutralizing VEGF165 at 1000 ng/mL, HUVEC proliferation (run against Avastin) [3]: 9.33 nM
maximum neutralization rate (%), VEGF165 at 10 ng/mL, HUVEC proliferation [3]: 100%
maximum neutralization rate (%), VEGF165 at 10 ng/mL, HUVEC proliferation (run against Avastin) [3]: 100%
maximum neutralization rate (%), VEGF165 at 100 ng/mL, HUVEC proliferation [3]: 102%
maximum neutralization rate (%), VEGF165 at 100 ng/mL, HUVEC proliferation (run against Avastin) [3]: 102%
maximum neutralization rate (%), VEGF165 at 1000 ng/mL, HUVEC proliferation [3]: 104%
maximum neutralization rate (%), VEGF165 at 1000 ng/mL, HUVEC proliferation (run against Avastin) [3]: 104%
EC50 [4]: 2.42 ng/mL
B1: humanized antibody VEGF-H988 (antibody, human IgG1, kappa, V domains shown)
VH: QSVQESGPGLVKPSETLSLTCTVSGIDLSSYAISWVRQPPGKGLEYIGYIWNDLFTYYASWAKGRVTISVDTSKNQVDLKLSSVTAADTAVYFCARGTLGDYGGMDPWGQGTLVTVSS
VL: ELQLTQSPSSLSASVGDRVTITCQSSKFLWQGRRLAWYQQKPGKVPKLLIYGASTLASGVPSRFKGSGSGTDFTLTISSLQPEDVATYYCAGYKSYDGDVVGFGGGTKVEIKR
